In PMC4157346:

How the values were obtained:
[1] = biological target: CXCR1 receptor on stably transfected RBL-2H3 cells (UniProt P25024)
[2] = biological target: CXCR2 receptor on stably transfected RBL-2H3 cells (human) (UniProt P25025); experiment: radioligand binding
[3] = biological target: CXCR1 receptor on stably transfected RBL-2H3 cells (UniProt P25024); experiment: radioligand binding

EC50 of Ca2+ release, CXCR1-transfected RBL-2H3 cells [1] [nM] | Kd [2] [nM] | Kd [3] [nM] | Substance
22.9 | – | – | CXCL8 G31V mutant (ligand)
10.7 | – | – | CXCL8 P32A mutant (ligand)
> 1000 | – | – | CXCL8 P32G mutant (ligand)
2.5 | 5.4 | 4.1 | CXCL8 wild type (from UniProt P10145 21-99) (ligand)
